Reference: paper PMC10556033

Test: eIF4E2 co-IP, 4E-T and GIGYF2 immunoblot
Settings: glycan lost; control: MEST cDNA (wild type)

B1: mesoderm-specific transcript (MEST), also named PEG1: MEST N163Q (protein)
parent chain: MVRRDRLRRMREWWVQVGLLAVPLLAAYLHIPPPQLSPALHSWKSSGKFFTYKGLRIFYQDSVGVVGSPEIVVLLHGFPTSSYDWYKIWEGLTLRFHRVIALDFLGFGFSDKPRPHHYSIFEQASIVEALLRHLGLQNRRINLLSHDYGDIVAQELLYRYKQNRSGRLTIKSLCLSNGGIFPETHRPLLLQKLLKDGGVLSPILTRLMNFFVFSRGLTPVFGPYTRPSESELWDMWAGIRNNDGNLVIDSLLQYINQRKKFRRRWVGALASVTIPIHFIYGPLDPVNPYPEFLELYRKTLPRSTVSILDDHISHYPQLEDPMGFLNAYMGFINSF
other: eIF4E2-4E-T/GIGYF2 complex formation in cells: increases
